According to the supplement of paper PMC9732359:
± gives the uncertainty stated by the source.

Experiment: protein stability index of a GFP-peptide fusion (yeast GPS) (PSI 1-4); higher = more stable; sorted into four equal gates, so the index is relative within each strain
Method in brief: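 Tiled 17-residue peptides from yeast proteins were fused downstream of GFP on a plasmid that also expresses Cherry, and the pooled library was carried in yeast. Mid-log cultures grown in leucine-free medium were sorted into four equal gates by GFP/Cherry fluorescence ratio. Plasmids from each gate were PCR-amplified and Illumina-sequenced, and reads were assigned to strains by barcodes. Each peptide's protein stability index is the sum, over gates, of the gate's read frequency multiplied by its gate number.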

RIYDREPTVRIQAVFCL [YCG1]
protein stability index (doa10∆): 2.47 ± 0.11 | protein stability index (pdr5∆): 1.72 ± 0.15 | protein stability index (san1∆): 1.61 ± 0.21 | protein stability index (ubr1∆): 2.39 ± 0.1

LGDMENNLEKYPFRYKT [RTT102]
protein stability index (doa10∆): 3.44 ± 0.073 | protein stability index (pdr5∆): 3.39 ± 0.055 | protein stability index (san1∆): 3.46 ± 0.042 | protein stability index (ubr1∆): 3.43 ± 0.081

VSFNDSQSMVTNKENNI [YIL149C/MLP2]
protein stability index (doa10∆): 2.96 ± 0.057 | protein stability index (pdr5∆): 3.3 ± 0.076 | protein stability index (san1∆): 3.02 ± 0.057 | protein stability index (ubr1∆): 3.16 ± 0.046

YKDSLALINDLLREFKK [RPN6]
protein stability index (pdr5∆): 2.42 ± 0.22 | protein stability index (san1∆): 1.86 ± 0.22 | protein stability index (ubr1∆): 3.21 ± 0.23

RHLVNRGREEAASFKKL [PRE10]
protein stability index (doa10∆): 3.07 ± 0.059 | protein stability index (pdr5∆): 3.2 ± 0.1 | protein stability index (san1∆): 3 ± 0.084 | protein stability index (ubr1∆): 2.85 ± 0.089

ANGGSTIISPHKDIPEE [DSN1]
protein stability index (doa10∆): 3.44 ± 0.21 | protein stability index (pdr5∆): 3.44 ± 0.16 | protein stability index (san1∆): 3.57 ± 0.079 | protein stability index (ubr1∆): 2.88 ± 0.28

EQTCVKLLDSGCENPAD [SRP72]
protein stability index (doa10∆): 3.26 ± 0.066 | protein stability index (pdr5∆): 3.4 ± 0.085 | protein stability index (san1∆): 2.91 ± 0.092 | protein stability index (ubr1∆): 3.46 ± 0.073

HLCSGILSSVNRTVLLK [SRB8]
protein stability index (doa10∆): 1.42 ± 0.073 | protein stability index (pdr5∆): 1.67 ± 0.15 | protein stability index (san1∆): 1.41 ± 0.17 | protein stability index (ubr1∆): 1.67 ± 0.047

PISKHSKQAIYTRAAAS [RPS25B]
protein stability index (doa10∆): 2.64 ± 0.067 | protein stability index (pdr5∆): 2.63 ± 0.054 | protein stability index (san1∆): 2.43 ± 0.061 | protein stability index (ubr1∆): 2.83 ± 0.051

LEDFENFKGLAKEKERM [YIL149C/MLP2]
protein stability index (doa10∆): 3.41 ± 0.075 | protein stability index (pdr5∆): 3.51 ± 0.085 | protein stability index (san1∆): 3.42 ± 0.054 | protein stability index (ubr1∆): 3.35 ± 0.083

HNAGPVAGAGAASGAAA [RPP1B]
protein stability index (doa10∆): 3.11 ± 0.11 | protein stability index (pdr5∆): 2.24 ± 0.05 | protein stability index (san1∆): 2.22 ± 0.12 | protein stability index (ubr1∆): 2.02 ± 0.059

RVADEDANLNDLPETGF [IRR1]
protein stability index (doa10∆): 3 ± 0.095 | protein stability index (pdr5∆): 3.22 ± 0.11 | protein stability index (san1∆): 3.44 ± 0.078 | protein stability index (ubr1∆): 3.13 ± 0.089

PTHYKIPAWFLNRQNDI [RPS18A]
protein stability index (doa10∆): 2.12 ± 0.065 | protein stability index (pdr5∆): 2.19 ± 0.062 | protein stability index (san1∆): 1.8 ± 0.071 | protein stability index (ubr1∆): 1.75 ± 0.046

FEGNALIRRLVRVGVLS [RPS9A]
protein stability index (doa10∆): 2.44 ± 0.1 | protein stability index (pdr5∆): 2.52 ± 0.18 | protein stability index (ubr1∆): 1.15 ± 0.17

VPSPTGEYVKEPEWVLE [RPO21]
protein stability index (doa10∆): 3 ± 0.11 | protein stability index (pdr5∆): 3.07 ± 0.12 | protein stability index (san1∆): 2.85 ± 0.28 | protein stability index (ubr1∆): 3.15 ± 0.062

RELLNPRYTYHTIFSDV [YML031W/NDC1]
protein stability index (doa10∆): 3.01 ± 0.053 | protein stability index (pdr5∆): 3.05 ± 0.052 | protein stability index (san1∆): 2.71 ± 0.045 | protein stability index (ubr1∆): 2.93 ± 0.058

LKFVKVRVRTTKIPQIG [RPB2]
protein stability index (doa10∆): 2.51 ± 0.073 | protein stability index (pdr5∆): 2.55 ± 0.079 | protein stability index (san1∆): 2.85 ± 0.13 | protein stability index (ubr1∆): 2.52 ± 0.04

SYSPTSPSYSPTSPSYS [RPO21]
protein stability index (doa10∆): 2.53 ± 0.042 | protein stability index (pdr5∆): 2.66 ± 0.041 | protein stability index (san1∆): 2.78 ± 0.037 | protein stability index (ubr1∆): 2.76 ± 0.034

VKAAINFSNVTDLTNNS [YIL149C/MLP2]
protein stability index (doa10∆): 2.49 ± 0.044 | protein stability index (pdr5∆): 3.11 ± 0.049 | protein stability index (san1∆): 3.35 ± 0.04 | protein stability index (ubr1∆): 2.62 ± 0.04

VLSSVREPDFWVIRKQR [MED6]
protein stability index (doa10∆): 3.52 ± 0.12 | protein stability index (pdr5∆): 3.44 ± 0.1 | protein stability index (san1∆): 3.54 ± 0.12 | protein stability index (ubr1∆): 3.11 ± 0.12

SQVKDSVTETESISQTP [SRP68]
protein stability index (doa10∆): 2.92 ± 0.12 | protein stability index (pdr5∆): 3.02 ± 0.11 | protein stability index (san1∆): 3.22 ± 0.21 | protein stability index (ubr1∆): 2.93 ± 0.084

ASSPIILEEGSSGMGAF [RPN10]
protein stability index (doa10∆): 3.04 ± 0.079 | protein stability index (pdr5∆): 3.04 ± 0.083 | protein stability index (san1∆): 2.99 ± 0.089 | protein stability index (ubr1∆): 3.14 ± 0.059

TSKTVSNQFKRSLATAV [COR1]
protein stability index (doa10∆): 2.47 ± 0.11 | protein stability index (pdr5∆): 2.32 ± 0.075 | protein stability index (san1∆): 2.34 ± 0.092 | protein stability index (ubr1∆): 1.8 ± 0.056

KKMTKKAKRSNLYTPKA [PRP8]
protein stability index (doa10∆): 2.9 ± 0.059 | protein stability index (pdr5∆): 2.19 ± 0.038 | protein stability index (san1∆): 2.39 ± 0.059 | protein stability index (ubr1∆): 2.3 ± 0.031

RNSKLLNTKSIQIDEET [MCD1]
protein stability index (doa10∆): 3.21 ± 0.23 | protein stability index (pdr5∆): 2.63 ± 0.084 | protein stability index (san1∆): 3.18 ± 0.061 | protein stability index (ubr1∆): 3.33 ± 0.12

IHALAAKLLQENDTTLV [FAS1]
protein stability index (doa10∆): 2.53 ± 0.13 | protein stability index (pdr5∆): 2.8 ± 0.14 | protein stability index (san1∆): 2.86 ± 0.12 | protein stability index (ubr1∆): 3.33 ± 0.18

FISSGTSLLDSLISVLE [YJL039C/NUP192]
protein stability index (doa10∆): 2 ± 0.056 | protein stability index (pdr5∆): 2.27 ± 0.052 | protein stability index (san1∆): 2.17 ± 0.08 | protein stability index (ubr1∆): 1.91 ± 0.047

RKLAVERAGHLLCDKAQ [PRE5]
protein stability index (doa10∆): 3.47 ± 0.15 | protein stability index (pdr5∆): 3.18 ± 0.11 | protein stability index (san1∆): 3.12 ± 0.072 | protein stability index (ubr1∆): 3.37 ± 0.14

HIQEEEEQDVDMTGDEE [RPC19]
protein stability index (doa10∆): 3.38 ± 0.15 | protein stability index (pdr5∆): 3.35 ± 0.13 | protein stability index (san1∆): 3.05 ± 0.075 | protein stability index (ubr1∆): 3.27 ± 0.063

ELVKAHLGERAASVIGM [RPC82]
protein stability index (doa10∆): 2.55 ± 0.29 | protein stability index (pdr5∆): 2.77 ± 0.28 | protein stability index (san1∆): 2.57 ± 0.22 | protein stability index (ubr1∆): 2.52 ± 0.086

SLKGLQSKLKDVVEYLD [RPN8]
protein stability index (doa10∆): 2.92 ± 0.083 | protein stability index (pdr5∆): 2.27 ± 0.055 | protein stability index (san1∆): 2.71 ± 0.069 | protein stability index (ubr1∆): 2.48 ± 0.048

DHLIIEPEEEKSKREEE [ARP9]
protein stability index (doa10∆): 3.15 ± 0.27 | protein stability index (ubr1∆): 3.2 ± 0.17

RFQKCFPPGVIGIDEGS [RPC40]
protein stability index (doa10∆): 2.15 ± 0.11 | protein stability index (pdr5∆): 2.15 ± 0.22 | protein stability index (ubr1∆): 2.43 ± 0.18

HRSGKIVVQLNGRLNKC [RPS22A]
protein stability index (pdr5∆): 3.52 ± 0.23 | protein stability index (san1∆): 2.98 ± 0.13 | protein stability index (ubr1∆): 3.36 ± 0.13

EHFLKLNIDFGSDKQMF [YML103C/NUP188]
protein stability index (doa10∆): 2.61 ± 0.075 | protein stability index (pdr5∆): 2.59 ± 0.07 | protein stability index (san1∆): 2.26 ± 0.1 | protein stability index (ubr1∆): 3.16 ± 0.061

LRLRISRKRNEEEDAKN [RPL31A]
protein stability index (doa10∆): 1.72 ± 0.17 | protein stability index (pdr5∆): 2.39 ± 0.17 | protein stability index (san1∆): 3.35 ± 0.16 | protein stability index (ubr1∆): 2.32 ± 0.14

NNKNNSITTGNDNENIV [MED2]
protein stability index (doa10∆): 2.89 ± 0.046 | protein stability index (pdr5∆): 2.94 ± 0.047 | protein stability index (san1∆): 2.95 ± 0.044 | protein stability index (ubr1∆): 2.99 ± 0.046

PGTITHGMFSSASVRAL [FAS1]
protein stability index (doa10∆): 2.53 ± 0.063 | protein stability index (pdr5∆): 2.54 ± 0.064 | protein stability index (san1∆): 2.53 ± 0.053 | protein stability index (ubr1∆): 2.52 ± 0.037

HLNFPNVKFLRIFISNV [SNF12]
protein stability index (doa10∆): 1.79 ± 0.071 | protein stability index (pdr5∆): 1.26 ± 0.094 | protein stability index (san1∆): 1.27 ± 0.13 | protein stability index (ubr1∆): 1.19 ± 0.087

CVKLTVRSLLEVVQTGA [PRE6]
protein stability index (doa10∆): 2.44 ± 0.3 | protein stability index (ubr1∆): 2.27 ± 0.29
